# Patent publication US20240245805A1 (Orna Therapeutics, Inc., priority 2020, published 2024)
# B1: Lesavirus 1 (nucleic acid)
# DNA: GTAACTAATAAGCAAGTTTTACTGCCTGCAAACTGCTTCAATGGGACCACCGCTTCGGCGACCCCTTTGTTGAGTTTGTATGTTTTTAAGTAATCTTTGCAACCATACGATTATTTTAGCCGCCTCTCTATAATGATCTTGTTATAGTGGGACGTGAAACATTGGTTTTTCTCACACACGTCCGGTCACCCGGGCGTGTGTTCTTCCGTAAGTCCTATCCACATACCATCGTGGGTAGGCCAGCATGTTTGCACAGGCTGTGACAGTGTGGGTGGGCTTTCCACCTCTCAACAACACACTGAATTGCAATGCACTCACGGAGGAAATGACAATTTGGTTATAGTTTTGAACTGTGCTAGTAATTTCTTTCACATTAAGCCATGTTGCCTGCGGAATCACATGTGGTAACACATGCCTCAGGGCCCAAAAGGCACGGGTTAGCAGCCCCTTCATGGTGTGTTAGAAGTGAAAACACATAGTATGAGCTATAATATCTTTGTTGTCTTCTCTGTAGTGTACCCCGCCAAATGTAAGGATGCCCAGCAGGTACCCATTTTATGGATCTGAGCTGGGGATTGATAGTGTATCTATAAATGCACTGATCAATTTAAAAAGCGTCTAAGTTTGGCACAAACACTGGGGACAGTGTTTTTCCTTTATTCTTTTATTTGATTA
# modifications: lipid formulation; source: /note="Description of Unknown: Lesavirus 1 sequence"
# B2: Porcine reproductive and respiratory syndrome virus 2 (nucleic acid)
# DNA: ATGACGTATAGGTGTTGGCTCTATGCCTTGGCATTTGTATTGTCAGGAGCTGTGACCATTGGCACAGCCCAAAACTTGCTGCACAGAAACACCCTTCTGTGATAGCCTCCTTCAGGGGAGCTTAGGGTTTGTCCCTAGCACCTTGCTTCCGGAGTTGCACTGCTTTACGGTCTCTCCACCCCTTTAACC
# modifications: lipid formulation; source: /note="Description of Unknown: Porcine reproductive and respiratory syndrome virus 2 sequence"
# B3: Picornavirales Tottori-HG1 (nucleic acid)
# DNA: AGCCATGAACTAGTGTGCGATTCCCACAGTGTTGGTCGAAAGCCCCGCACTGTCTACTCGCATATTTGACTCCAGTCCTTCCGCAGCCAGCGGTTAGGTTCTGGTTAAAGTGCATTATGTGCACGGCGCCACGCAGAACTGCCAGAAATGGTAAGCTGCGCCCAACGCCAACGGTTTGTGTATCCCGTTAGTCACACGTTTACAGCTGTTCGTTAACAGTAGGGTTTTGTCGACCCGGACCCCTTAATGCGCGCGAATTCAACCGCGCCTAGTCGGCAATGGTATCATTTAATCCCATGCACTACGGGAGAAATTTGAGACCAAAGAATTCCTGAGGGCCACTGCTTGCTCTAAGTGCAATGCCTCGGGAGACTTCTGTCAGGAGCCTAGCGGCTTTCAACCGCGACAGCTAACTCCTGCGGGATGTTTGGTGTCCATACTTACTGGCGTCCTCACAACGCTAAGTGGATGTTGTCCACAGGTAGGCAAACACCGAGCCCCACATTCAGGAGACCTGTATGAACGATCCTATCAGCATTAGAGTTGGAATTGGGTGTGCTAACGTCCGCATAAGTGCACCCCGTGGTAACGCTGGGAAACTATCCAGCGCAACGTACTGTCCTCAATGTCTAGGGAAGGACCGCCCTAAGCGTACAACCGGGCCATGTGTCGAGC
# modifications: lipid formulation; source: /note="Description of Unknown: Picornavirales Tottori-HG1 sequence"
# B4: Rabovirus A (nucleic acid)
# DNA: CTACGGATATTTGCATGACCCGCTTTCTATCGCCCCAACAATCCCCTTTGTAACCACAAGCTTTACTCAGGCTAGCAGCCCGACTAGCTGTTTGGAAGAAAAGGCTAGGGCACACACCAACAACACCGACCCCACTGGTCGAAGGCCGCTTGGCAATAAGACTGGTGGAACAGGGTCGCCTGTAGTTGTTTGGAACATTCTTTCTAATGACTTTGTCAGCGGTGCTACTCACACCGTAACTCTTCTACCCTATCCCCACGCTTGTGGAACTAGGAGGGGATGAGTGATTCAAGTAAGTACTGTCAGAATGGTGAAAATGATCTGATTCTGAAACGCTATGGATCCATCGAAAGATGGGGCTACACGCCTGCGGAACAACACATGGTAACATGTGCCCCAGGGGCCGAAAGCCACGGTGATAGGATCACCCGTGTAGTTTGAGATCATATCAATGTTCATAGTCTAGTAAGATGATTTGAAATCTAACTGAGCTGATGGCTAACTGCTTGTCTTATTGCGGCCTAAGGATGTCCTGCAGGTACCTTTAGATAACCTTAAGAGACTATTGATCTGAGCAGGAGCCAAAGTGGTCTTTCCCAGCTTTGGTTAAAAAACGTCTAAGCCGCGGCAGGGGGCGGGAGGCCCCCTTTCCTCCCAAAACTTAATATTGATTGT
# modifications: lipid formulation; Rabovirus A
# B5: Shingleback nidovirus 1 (nucleic acid)
# DNA: CTGTGAGTACCGACAGGCTCGAAGTCTATTATGAGGCGTCGAAACAGAAAACCTGTAACAACTCCGGTTTCATCTATCACTGCCGTCAAGAGGCAGAAGAGGACGACCACGTGTCACCAGATCACTTGTATCTGTTTCAGTCAGGAAGTCAACTTTTCGACGAAGTTCGACCATTCATCGACCCGCTGAAAAGCGTAGAAGTCGATGAAGATGAGCTCCAAAGAGCCATCGCCGATTTCGACAACCAAAGTGACTGTTTCCACTCCTTCGAGCTCGTGAATTTCGAGCTGAAACAACAAATCAACGAGAACGAGTGGTACGGTTATTATAATTACGACAACCAAAACTGCAAAGTTCAGTTGCCAGTCACATGTCGAATCGAGGACGTAACCTGGGATCAGGTTTACGTG
# modifications: Shingleback nidovirus 1
# B6: Seneca valley virus (nucleic acid)
# DNA: TTTGAAATGGGGGGCTGGGCCCTGATGCCCAGTCCTTCCTTTCCCCTTCCGGGGGGTTAACCGGCTGTGTTTGCTAGAGGCACAGAGGGGCAACATCCAACCTGCTTTTGCGGGGAACGGTGCGGCTCCGATTCCTGCGTCGCCAAAGGTGTTAGCGCACCCAAACGGCGCACCTACCAATGTTATTGGTGTGGTCTGCGAGTTCTAGCCTACTCGTTTCTCCCCCGACCATTCACTCACCCACGAAAAGTGTGTTGTAACCATAAGATTTAACCCCCGCACGGGATGTGCGATAACCGTAAGACTGGCTCAAGCGCGGAAAGCGCTGTAACCACATGCTGTTAGTCCCTTTATGGCTGCAAGATGGCTACCCACCTCGGATCACTGAACTGGAGCTCGACCCTCCTTAGTAAGGGAACCGAGAGGCCTTCGTGCAACAAGCTCCGACACAGAGTCCACGTGACTGCTACCACCATGAGTACATGGTTCTCCCCTCTCGACCCAGGACTTCTTTTTGAATATCCACGGCTCGATCCAGAGGGTGGGGCATGACCCCTAGCATAGCGAGCTACAGCGGGAACTGTAGCTAGGCCTTAGCGTGCCTTGGATACTGCCTGATAGGGCGACGGCCTAGTCGTGTCGGTTCTATAGGTAGCACATACAAAT
# modifications: source: /note="Description of Unknown: Seneca valley virus sequence"
# B7: Sclerotinia sclerotiorum dsRNA mycovirus-L (nucleic acid)
# DNA: TTGAATTAATCTTTTACGTTTACGCGCATAAAATCAGGACACATCTCTTGTATACTTTAGTATATCAATGATGTTTTTGTTTTATGCGATTAATCGTAAGAGAACTTCTTTCCATCCGCCTGTATGGGCGGGATAATAAGTTCACCGCCTTGGTCGAGGCGCAAACTTGTATGTGCAAAGGTGAGCTATATGCTCGAAATAGTCGTAACTAACACACAGCCACTACCTGTAGAGCTCTATTGATCCGGAATCCTTTAGTGGGAATGCAGAGCTCACACCGGACCTGCGGGTATCTTCGGCGTTAGGGACTTCTGTTTCAGCCTTGAATCATTTACCTTTATACCTTCTCTGAGGCGCCTGGGCCGGGCGCGATATTAAGTACAAGTCAAGGACATCGCGGGTAGTGGTCTAATCAGCCGCTAGTCCTGCTGGAGAGTTCCAACTTAGTTGGGTGTGGTGCATACTAGCTGGATAGAGTAGGTATGTATTGCTAACGTATGCCGGAGGCTATCCGTCCTCGGTAGAACGTGCCGAGGAGTAGTCTCTGCAGACCCCCGAACGCGTGGGGTCTTTACTTAAATGTAGGCGGAGGGAGCGCTCGTAGGTGGAACGACTGCCTCCCAGTCGAATGCAAGATTTTGCACGCGGACCAGTCTGCCCGGCAATTCCCGGGTG
# modifications: source: /note="Description of Unknown: Sclerotinia sclerotiorum dsRNA mycovirus-L sequence"
# B8: Yak enterovirus (nucleic acid, listed as Enterovirus sp.)
# DNA: CTCCGGCACAGCCGCACCAGTGCACTGGTACGCTAGTACCTTTTCACGGGGTAGTCGGTATCCCCCCCCGTAACTTAGAAGCATGTAACAAACCGACCAATAGGTGCGCGGCAGCCAGCTGCGTTGCGGTCAAGCACTTCTGTCTCCCCGGTCCGCAAGGATCGTTACCCGCCCACTCCACTACGAGGAGCCTAGTAACTGGCCAAGTGATTGCGGAGTTGCGTTCAGCCACAACCCCAGTGGTAGCTCTGGAAGATGGGGCTCGCACATCCCCCGTGGTAACACGGTTGCTTGCCCGCGTGTGCTTCCGGGTTCAGTCTCCGACTGTTCACTTCAACATCACGCAACCAGCCAAGAGCCGATTGTGCTGGAGTGGTCTTCCTCCGGGGCCGTGAATGCTGCTAATCCTAACCTCCGAGCGTGTGCGCACAATCCAGTGTTGCTACGTCGTAACGCGTAAGTTGGAGGCGGAACAGACTACTTTCGGCACCCCGTGTTTCCTTTATTTTATTCTTATTTTATGGTGACAATTGCAGAGATTTGTGATATTGCGACTTTACCGTTAAACATAGCACTGCATTACCTGGTTGCATTCCACAAAACTTCAGAGATTCCTAGTTCCTACATTGACCTACTTGTTTATTTGAATCTTAAATACAAACTTGAGCAAGTGAA
# B9: Wobbly possum disease virus (nucleic acid)
# DNA: CGGCTGTGAGTGCTTAGCATATGCTAGAGTACTACAGCCGGGTGTTGGAGTCATATGCACTGGTTGCCTGTATAATAGTCGGGATCTGTCTGACCTACATTATCTTTGGGAGTTGCTTATCACGACAATTCTCGAAGTGTCTGTCGACAGCTTACCCCCGATTCGACAAGGCCCCTTGTCCACCGCAGACCTATCGATTTTCAACGAGAACACTATCAGAGGTTTAAATTTAAAACTCACCAACA
# modifications: source: /note="Description of Unknown: Wobbly possum disease virus sequence"
# System: HEK293 cells
# Assay type: cell-based, human
# Conditions: circular RNA encoding Gluc with the listed IRES (UTR truncated to 675 nt) transfected into HEK293 cells; supernatant after 24 hours
row,Molecule,Expression (luminescence from secreted Gluc protein)
1,B1,6.37E+06
2,B2,1.29E+05
3,B3,9.54E+04
4,B4,2.88E+06
5,B5,2.62E+05
6,B6,1.46E+07
7,B7,1.69E+05
8,B8,6.19E+06
9,B9,2.60E+05
